# Biological target: CTLA-4 Ig functionalized with GzmB substrate (UniProt P16410)
# Sequence (P16410 38-161): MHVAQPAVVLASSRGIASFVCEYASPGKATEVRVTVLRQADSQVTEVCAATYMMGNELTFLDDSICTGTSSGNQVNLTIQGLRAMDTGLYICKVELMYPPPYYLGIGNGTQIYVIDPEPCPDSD
protein,measurement,value
"complement component S1 (enzyme, UniProt P09871 16-688, looked up, species assumed) Complement C1s subcomponent: EPTMYGEILSPNYPQAYPSEVEKSWDIEVPEGYGIHLYFTHLDIELSENCAYDSVQIISGDTEEGRLCGQRSSNNPHSPIVEEFQVPYNKLQVIFKSDFSNEERFTGFAAYYVATDINECTDFVDVPCSHFCNNFIGGYFCSCPPEYFLHDDMKNCGVNCSGDVFTALIGEIASPNYPKPYPENSRCEYQIRLEKGFQVVVTLRREDFDVEAADSAGNCLDSLVFVAGDRQFGPYCGHGFPGPLNIETKSNALDIIFQTDLTGQKKGWKLRYHGDPMPCPKEDTPNSVWEPAKAKYVFRDVVQITCLDGFEVVEGRVGATSFYSTCQSNGKWSNSKLKCQPVDCGIPESIENGKVEDPESTLFGSVIRYTCEEPYYYMENGGGGEYHCAGNGSWVNEVLGPELPKCVPVCGVPREPFEEKQRIIGGSDADIKNFPWQVFFDNPWAGGALINEYWVLTAAHVVEGNREPTMYVGSTSVQTSRLAKSKMLTPEHVFIHPGWKLLEVPEGRTNFDNDIALVRLKDPVKMGPTVSPICLPGTSSDYNLMDGDLGLISGWGRTEKRDRAVRLKAARLPVAPLRKCKEVKVEKPTADAEAYVFTPNMICAGGEKGMDSCKGDSGGAFAVQDPNDKTKFYAAGLVSWGPQCGTYGLYTRVKNYVDWIMKTMQENSTPRED",in vitro cleavage assay,"no cross-cleavage by matrix, complement, or immune proteases"

# — patent US20220185889
